In US7037662 (dated 2006):

What was measured:
[1] = molecular target: T1, soluble HEK (sHEK), complete extracellular domain (exodomain) of HEK encoded by exons I-VII (human, UniProt P29320 21-541); experiment: BIAcore, apparent KD from kinetic constants, sHEK over sensor chip-immobilised LERK 7; sHEK over sensor chip-immobilised LERK 7
T1 construct: extracellular domain; Untagged soluble exodomain from CHO cells; also called HEK exodomain
T1 sequence (looked up): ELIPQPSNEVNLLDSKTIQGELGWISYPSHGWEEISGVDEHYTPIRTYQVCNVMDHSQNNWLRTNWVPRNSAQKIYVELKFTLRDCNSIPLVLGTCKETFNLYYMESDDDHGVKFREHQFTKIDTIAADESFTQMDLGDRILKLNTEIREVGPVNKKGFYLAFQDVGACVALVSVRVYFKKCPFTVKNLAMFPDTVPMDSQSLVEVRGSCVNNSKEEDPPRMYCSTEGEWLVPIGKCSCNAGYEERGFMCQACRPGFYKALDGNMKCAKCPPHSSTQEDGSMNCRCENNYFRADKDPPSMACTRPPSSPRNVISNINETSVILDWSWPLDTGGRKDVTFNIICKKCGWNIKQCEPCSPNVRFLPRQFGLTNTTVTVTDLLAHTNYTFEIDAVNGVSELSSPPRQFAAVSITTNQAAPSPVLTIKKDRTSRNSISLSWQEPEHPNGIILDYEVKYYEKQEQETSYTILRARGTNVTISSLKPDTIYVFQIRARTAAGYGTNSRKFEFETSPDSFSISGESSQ
Method: (§1) The binding of various HEK constructs and derived peptides was analysed on the BIAcore optical biosensor (Pharmacia Biosensor, Sweden) using purified soluble HEK (corresponding to the entire extracellular domain) or LERK 7-FLAG derivatised CM 5 sensor chips and the interaction kinetics determined. The immobilization of HEK onto the sensor chip surface was performed essentially as described by Lackmann et al, 1996. LERK7-FLAG (47 μg/ml in 20 mM sodium acetate, pH 4.5) was coupled at 5 μl/min onto N-hydroxysuccinimide (NHS, 0.05 M)/N-hydroxysuccinimide-N-ethyl-N'-([…]) carbodiimide(EDC, 0.2 M) activated sensor chips (45 μl, 2 μl/min) to yield an increase in the response level of 2500–3000 response units (RU).
(§2) Figure 2D: FIG. 2D: sHEK proteins at increasing concentrations (15.6–500 nM) were injected onto LERK 7-derivatised sensor chips and the association rate constants, (M) derived from BIAcore raw data using the BIA evaluation software as described in *Materials and Methods*. Figure 2E: FIG. 2E; The kinetic rate constants were then used to estimate apparent dissociation constants according to K_D=kd/ka. The mean and standard deviation from estimates at five different concentrations are shown (dark shading). In addition, equilibrium responses were used to estimate the apparent equilibrium dissociation constants (light shading).

[2] = molecular target: T1, soluble HEK (sHEK), complete …; experiment: BIAcore, apparent KD from kinetic rate constants, immobilised sHEK
Method: as §1
(§3) Figures 5A, 5B: FIG. 5: Binding curves for the interaction of monovalent LERK-FLAG fusion proteins with immobilised sHEK. Homogeneous preparations of CHO cell-derived LERK 3-FLAG (panel A) or LERK 7-FLAG (panel B) at increasing concentrations (8.22, 16.44, 32.88, 65.75, 131.5, 263, 526 nM) of LERK3-FLAG, and (1.25, 2.5, 5, 10, 20, 40, 80 nM) LERK7-FLAG were injected across an sHEK-derivatised sensor surface. BIAcore data for the association and dissociation phases were used to estimate corresponding kinetic rate constants on the basis of a one-to-one interaction model. (panel C). […]

[3] = molecular target: T1, soluble HEK (sHEK), complete …; experiment: BIAcore, LERK 7-FLAG over immobilised sHEK, single component model
Method: as §1, §3

[4] = molecular target: T2, HEK I-VII (N-terminally FLAG-tagged HEK exodomain, exons I-VII) (human, UniProt P29320 21-541); experiment: BIAcore, apparent KD from kinetic constants, HEK I-VII over sensor chip-immobilised LERK 7
T2 construct: extracellular domain; CHO cell product; in the zebrafish experiments expressed from injected mRNA; also called HEK-FLAG
T2 sequence (looked up): T1 sequence (looked up)
Method: as §1, §2

[5] = molecular target: T1, soluble HEK (sHEK), complete …; experiment: BIAcore, LERK-FLAG over immobilised HEK; reference LERK 3-FLAG
[6] = molecular target: T1, soluble HEK (sHEK), complete …; experiment: BIAcore, monovalent ligand constructs on HEK; reference LERK 3-FLAG

B1: LERK 7-FLAG (monovalent LERK7/AL-1 with N-terminal FLAG peptide) (ligand, human, UniProt P52803 21-203, looked up, not shown: small tags and cut ends)
chain: QDPGSKAVADRYAVYWNSSNPRFQRGDYHIDVCINDYLDVFCPHYEDSVPEDKTERYVLYMVNFDGYSACDHTSKGFKRWECNRPHSPNGPLKFSEKFQLFTPFSLGFEFRPGREYFYISSAIPDNGRRSCLKLKVFVRPTNSCMKTIGVHDRVFDVNDKVENSLEPADDTVHESAEPSRGEN
notes: domain: mature protein stopped before the hydrophobic tail; also called soluble LERK7
What does the source list for B1?
Kd [1]: 72 nM; Kd [2]: 12 nM; koff [3]: 0.0061 s⁻¹; kon [3]: 480000 M⁻¹ s⁻¹; Kd [4]: 62 nM; fold lower off rate than LERK3-FLAG [5]: 40 fold; fold more avid than LERK3 [6]: 50 fold
